Test results from patent publication US20040265918A1.
One block for each substance: values may come before it.

Tests used:
[1] = target: p29^GFP-labeled vesicles (vesicles carrying a GFP-tagged p29 fusion protein) [GFP: P42212]; test: competition with native myosin V in the p29^GFP vesicle / F-actin binding assay, 10 nM T4, ~2-3 pmol polypeptide
[2] = target: p29 vesicles (vesicles carrying p29, the substrate binding subunit of type II iodothyronine 5'-deiodinase, D2) (rat) (UniProt Q62876); test: in vitro actin binding assay, competition with native F-actin-bound myosin V, 10 nM T4
[3] = target: F-actin (actin cytoskeleton of rat astrocytes, Triton-insoluble fraction) (rat); test: in vitro actin binding assay, Triton fractionation, gamma counting and SDS-PAGE
[4] = target: F-actin (actin cytoskeleton of rat astrocytes, Triton-insoluble fraction) (rat); test: in vitro actin binding assay (F-lysate plus V-lysate, Triton fractionation, SDS-PAGE)
[5] = target: F-actin (actin cytoskeleton of rat astrocytes, Triton-insoluble fraction) (rat); test: in vitro actin binding assay, release with 5 mM EGTA
[6] = target: F-actin (actin cytoskeleton of rat astrocytes, Triton-insoluble fraction) (rat); test: in vitro actin binding assay, release after 0.1 mM Ca^2+, 1 mM Mg^2+, 0.1 mM ATP
[7] = target: F-actin (actin cytoskeleton of rat astrocytes, Triton-insoluble fraction) (rat); test: F-lysate plus V-lysate with p29^GFP vesicles, fluorescence of the Triton-insoluble pellet

percent decrease of p29 binding to F-actin [1]: > 75%
percent of the T4-dependent binding of p29 vesicles to F-actin blocked (5 µl) [2]: 50%
percent of the p29 binding blocked (10 µl) [2]: > 95%
Substance: ? myosin V^tail (entire myosin V tail, residues 953 to 1852) (from UniProt Q99104 953-1852)

percent decrease of T4-dependent p29 binding [1]: > 75%
Substance: ? myosin ^1513 (residues 1513-1852) (from UniProt Q99104 1513-1852)

percent decrease of T4-dependent p29 binding [1]: > 75%
Substance: ? myosin ^1767 (residues 1767-1852) (from UniProt Q99104 1767-1852)

percent decrease of T4-dependent p29 binding [1]: > 75%
Substance: ? myosin ^1830 (residues 1830-1852) (from UniProt Q99104 1830-1852) (peptide)

percent of total p29 vesicles bound to F-actin (after 10 nM T4) [3]: 80%
percent of p29 remaining in the non-actin bound, Triton-soluble fraction (10 nM T3) [4]: > 90%
percent of radiolabeled p29 bound to the Triton insoluble, F-actin fraction (10 nM T4) [4]: > 70%
percent of the Ca^2+-stimulated release of p29 from F-actin blocked by EGTA [5]: > 50%
percent of p29 vesicles released from F-actin by Ca^2+, Mg^2+ and ATP [6]: 70%
Substance: p29 vesicles (vesicles carrying p29, the substrate binding subunit of type II iodothyronine 5'-deiodinase, D2) (from UniProt Q62876 1-234)

percent increase in p29^GFP vesicle binding to F-actin at 100 nM T3 [7]: 10 to 20%
Substance: p29^GFP-labeled vesicles (vesicles carrying a GFP-tagged p29 fusion protein) (from UniProt P42212 1-238)
